In publication PMC3690555 (Biochemistry, 2009):
Each block holds one molecule with its values, some of them ahead of it.

What was measured:
[1] = molecular target: Y9F-NiSOD (Streptomyces coelicolor); experiment: crystal structure
[2] = molecular target: Y9F-NiSOD (Streptomyces coelicolor); experiment: SEC + native MS
[3] = molecular target: Y9FY62F-NiSOD (Streptomyces coelicolor); experiment: SEC + native MS
[4] = molecular target: Y62F-NiSOD (Streptomyces coelicolor); experiment: SEC + native MS
[5] = molecular target: D3A-NiSOD (Streptomyces coelicolor); experiment: crystal structure
[6] = molecular target: D3A-NiSOD (Streptomyces coelicolor); experiment: SEC + native MS
SEC + native MS = molecular target: the molecule itself; experiment: SEC + native MS

- stoichiometry N [1]: 6
- stoichiometry N [2]: 6
Molecule: Y9F-NiSOD (enzyme)

- stoichiometry N [3]: 6
Molecule: Y9FY62F-NiSOD (enzyme)

- stoichiometry N [4]: 6
Molecule: Y62F-NiSOD (enzyme)

- stoichiometry N [5]: 6
- stoichiometry N [6]: 6
Molecule: D3A-NiSOD (enzyme)

B1: WT-NiSOD, recombinant nickel-dependent superoxide dismutase from Streptomyces coelicolor (enzyme, UniProt P80735 15-131, looked up)
chain: HCDLPCGVYDPAQARIEAESVKAVQEKMAGNDDPHFQTRATVIKEQRAELAKHHVSVLWSDYFKPPHFEKYPELHQLVNDTLKALSAAKGSKDPATGQKALDYIAQIDKIFWETKKA
- stoichiometry N (SEC + native MS): 6
